Reference: publication PMC10716376, “The assembly of the Mitochondrial Complex I Assembly complex uncovers a redox pathway coordination” (Nature Communications, 2023)

B7: ACAD9WT (mature ACAD9, residues 38-621) (enzyme, human, UniProt Q9H845 38-621, looked up)
chain: AFAKELFLGKIKKKEVFPFPEVSQDELNEINQFLGPVEKFFTEEVDSRKIDQEGKIPDETLEKLKSLGLFGLQVPEEYGGLGFSNTMYSRLGEIISMDGSITVTLAAHQAIGLKGIILAGTEEQKAKYLPKLASGEHIAAFCLTEPASGSDAASIRSRATLSEDKKHYILNGSKVWITNGGLANIFTVFAKTEVVDSDGSVKDKITAFIVERDFGGVTNGKPEDKLGIRGSNTCEVHFENTKIPVENILGEVGDGFKVAMNILNSGRFSMGSVVAGLLKRLIEMTAEYACTRKQFNKRLSEFGLIQEKFALMAQKAYVMESMTYLTAGMLDQPGFPDCSIEAAMVKVFSSEAAWQCVSEALQILGGLGYTRDYPYERILRDTRILLIFEGTNEILRMYIALTGLQHAGRILTTRIHELKQAKVSTVMDTVGRRLRDSLGRTVDLGLTGNHGVVHPSLADSANKFEENTYCFGRTVETLLLRFGKTIMEEQLVLKRVANILINLYGMTAVLSRASRSIRIGLRNHDHEVLLANTFCVEAYLQNLFSLSQLDKYAPENLDEQIKKVSQQILEKRAYICAHPLDRTC
notes: human ACAD9, mature form, residues 38-621; E. coli codon-optimised synthetic gene; Cloned into pET-21d(+); Plasmid details are in Supplementary Data 1; source: E. coli C43 (DE3), purified (HisTrap, dialysed in SEC buffer)

Legend:
VLCAD_(ACAD9) (human) = VLCAD_(ACAD9) (human) (UniProt P49748); assay: mass photometry; ACAD9 (or VLCAD) at 20-50 nM in 25 mM HEPES pH 7.5, 250 mM NaCl, or diluted in 4.8 uM ECSIT solution for complex formation
[1] = target: B7; assay: dynamic light scattering; 278 K, protein at 1-2 mg/ml; complexes reconstituted at molar ratio 1:1.25; conditions: both partners purified
[2] = target: the molecule itself; assay: mass photometry; ACAD9 (or VLCAD) at 20-50 nM in 25 mM HEPES pH 7.5, 250 mM NaCl, or diluted in 4.8 uM ECSIT solution for complex formation
[3] = target: the molecule itself; assay: cryo-EM structure; ACAD9WT-ECSIT_(CTER) reconstituted (molar ratio 1:1.25) and purified by gel filtration; 25 mM HEPES, 300 mM NaCl, 1 mM TCEP, pH 7.5; C2 symmetry imposed
[4] = target: T1, ECSIT_(CTER) (residues 221-431) (human, UniProt Q9BQ95 221-431); assay: ITC
T1 chain: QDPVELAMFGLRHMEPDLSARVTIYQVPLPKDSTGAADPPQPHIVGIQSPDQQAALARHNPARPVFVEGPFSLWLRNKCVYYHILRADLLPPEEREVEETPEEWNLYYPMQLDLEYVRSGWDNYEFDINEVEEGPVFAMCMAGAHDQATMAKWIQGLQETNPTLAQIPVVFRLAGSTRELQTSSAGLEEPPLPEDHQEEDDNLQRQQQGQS

In the case of “VLCAD_(ACAD9) (from UniProt P49748 72-655) (enzyme)”, the stoichiometry N (VLCAD_(ACAD9) (human)) is reported as 2.

B1: ECSIT_(CTER-W324A) (domain or fragment, human, UniProt Q9BQ95 221-431, looked up)
chain: QDPVELAMFGLRHMEPDLSARVTIYQVPLPKDSTGAADPPQPHIVGIQSPDQQAALARHNPARPVFVEGPFSLWLRNKCVYYHILRADLLPPEEREVEETPEEANLYYPMQLDLEYVRSGWDNYEFDINEVEEGPVFAMCMAGAHDQATMAKWIQGLQETNPTLAQIPVVFRLAGSTRELQTSSAGLEEPPLPEDHQEEDDNLQRQQQGQS
notes: human ECSIT, residues 221-431, W324A; also called ECSIT-W324A; ECSIT_(W324A); source: E. coli BL21 Star (DE3), purified (HisTrap, SEC)
B1: binds [1].

B2: ECSIT_(CTER-Y327F) (domain or fragment, human, UniProt Q9BQ95 221-431, looked up)
chain: QDPVELAMFGLRHMEPDLSARVTIYQVPLPKDSTGAADPPQPHIVGIQSPDQQAALARHNPARPVFVEGPFSLWLRNKCVYYHILRADLLPPEEREVEETPEEWNLFYPMQLDLEYVRSGWDNYEFDINEVEEGPVFAMCMAGAHDQATMAKWIQGLQETNPTLAQIPVVFRLAGSTRELQTSSAGLEEPPLPEDHQEEDDNLQRQQQGQS
notes: human ECSIT, residues 221-431, Y327F; also called ECSIT_(Y327F); source: E. coli BL21 Star (DE3), purified (HisTrap, SEC)
B2: binds [1].

B3: ECSIT_(CTER-Y327A) (domain or fragment, human, UniProt Q9BQ95 221-431, looked up)
chain: QDPVELAMFGLRHMEPDLSARVTIYQVPLPKDSTGAADPPQPHIVGIQSPDQQAALARHNPARPVFVEGPFSLWLRNKCVYYHILRADLLPPEEREVEETPEEWNLAYPMQLDLEYVRSGWDNYEFDINEVEEGPVFAMCMAGAHDQATMAKWIQGLQETNPTLAQIPVVFRLAGSTRELQTSSAGLEEPPLPEDHQEEDDNLQRQQQGQS
notes: human ECSIT, residues 221-431, Y327A; also called ECSIT_(Y327A); source: E. coli BL21 Star (DE3), purified (HisTrap, SEC)
B3: binds [1].

B4: ECSIT_(CTER-Y328F) (domain or fragment, human, UniProt Q9BQ95 221-431, looked up)
chain: QDPVELAMFGLRHMEPDLSARVTIYQVPLPKDSTGAADPPQPHIVGIQSPDQQAALARHNPARPVFVEGPFSLWLRNKCVYYHILRADLLPPEEREVEETPEEWNLYFPMQLDLEYVRSGWDNYEFDINEVEEGPVFAMCMAGAHDQATMAKWIQGLQETNPTLAQIPVVFRLAGSTRELQTSSAGLEEPPLPEDHQEEDDNLQRQQQGQS
notes: human ECSIT, residues 221-431, Y328F; also called ECSIT_(Y328F); source: E. coli BL21 Star (DE3), purified (HisTrap, SEC)
B4: binds [1].

B5: ECSIT_(CTER-Y328A) (domain or fragment, human, UniProt Q9BQ95 221-431, looked up)
chain: QDPVELAMFGLRHMEPDLSARVTIYQVPLPKDSTGAADPPQPHIVGIQSPDQQAALARHNPARPVFVEGPFSLWLRNKCVYYHILRADLLPPEEREVEETPEEWNLYAPMQLDLEYVRSGWDNYEFDINEVEEGPVFAMCMAGAHDQATMAKWIQGLQETNPTLAQIPVVFRLAGSTRELQTSSAGLEEPPLPEDHQEEDDNLQRQQQGQS
notes: human ECSIT, residues 221-431, Y328A; also called ECSIT_(Y328A); source: E. coli BL21 Star (DE3), purified (HisTrap, SEC)
B5: binds [1].

B6: VLCADWT (very long chain acyl-CoA dehydrogenase, res. 72-655) (enzyme, human, UniProt P49748 72-655, looked up)
chain: SFAVGMFKGQLTTDQVFPYPSVLNEEQTQFLKELVEPVSRFFEEVNDPAKNDALEMVEETTWQGLKELGAFGLQVPSELGGVGLCNTQYARLVEIVGMHDLGVGITLGAHQSIGFKGILLFGTKAQKEKYLPKLASGETVAAFCLTEPSSGSDAASIRTSAVPSPCGKYYTLNGSKLWISNGGLADIFTVFAKTPVTDPATGAVKEKITAFVVERGFGGITHGPPEKKMGIKASNTAEVFFDGVRVPSENVLGEVGSGFKVAMHILNNGRFGMAAALAGTMRGIIAKAVDHATNRTQFGEKIHNFGLIQEKLARMVMLQYVTESMAYMVSANMDQGATDFQIEAAISKIFGSEAAWKVTDECIQIMGGMGFMKEPGVERVLRDLRIFRIFEGTNDILRLFVALQGCMDKGKELSGLGSALKNPFGNAGLLLGEAGKQLRRRAGLGSGLSLSGLVHPELSRSGELAVRALEQFATVVEAKLIKHKKGIVNEQFLLQRLADGAIDLYAMVVVLSRASRSLSEGHPTAQHEKMLCDTWCIEAAARIREGMAALQSDPWQQELYRNFKSISKALVERGGVVTSNPLGF
notes: human very long-chain acyl-CoA dehydrogenase (VLCAD), residues 72-655; plasmid ACADVL from Addgene #38838; VLCAD-related constructs were cloned into pNIC28-BSA; also called ACADVL; source: E. coli Rosetta 2 (DE3), purified (HisTrap, SEC)
In the case of B6, the “stoichiometry N” value [2] is reported as 2.

B7 was tested, and the “stoichiometry N” value [3] was 2 and the Kd [4] was 1.45 µM.

B8: ACAD9_(S191A) (enzyme, human, UniProt Q9H845 38-621, looked up)
chain: AFAKELFLGKIKKKEVFPFPEVSQDELNEINQFLGPVEKFFTEEVDSRKIDQEGKIPDETLEKLKSLGLFGLQVPEEYGGLGFSNTMYSRLGEIISMDGSITVTLAAHQAIGLKGIILAGTEEQKAKYLPKLASGEHIAAFCLTEPASGSDAAAIRSRATLSEDKKHYILNGSKVWITNGGLANIFTVFAKTEVVDSDGSVKDKITAFIVERDFGGVTNGKPEDKLGIRGSNTCEVHFENTKIPVENILGEVGDGFKVAMNILNSGRFSMGSVVAGLLKRLIEMTAEYACTRKQFNKRLSEFGLIQEKFALMAQKAYVMESMTYLTAGMLDQPGFPDCSIEAAMVKVFSSEAAWQCVSEALQILGGLGYTRDYPYERILRDTRILLIFEGTNEILRMYIALTGLQHAGRILTTRIHELKQAKVSTVMDTVGRRLRDSLGRTVDLGLTGNHGVVHPSLADSANKFEENTYCFGRTVETLLLRFGKTIMEEQLVLKRVANILINLYGMTAVLSRASRSIRIGLRNHDHEVLLANTFCVEAYLQNLFSLSQLDKYAPENLDEQIKKVSQQILEKRAYICAHPLDRTC
notes: human ACAD9, residues 38-621, S191A; One FAD per protomer in the cryo-EM structure; source: E. coli C43 (DE3), purified (HisTrap, dialysed in SEC buffer)
In the case of B8, the “stoichiometry N” value [2] is reported as 2.

B9: ACAD9_(VLCAD) (enzyme, human, UniProt Q9H845 38-621, looked up)
chain: AFAKELFLGKIKKKEVFPFPEVSQDELNEINQFLGPVEKFFTEEVDSRKIDQEGKIPDETLEKLKSLGLFGLQVPEEYGGLGFSNTMYSRLGEIISMDGSITVTLAAHQAIGLKGIILAGTEEQKAKYLPKLASGEHIAAFCLTEPASGSDAASIRSRATLSEDKKHYILNGSKVWITNGGLANIFTVFAKTEVVDSDGSVKDKITAFIVERDFGGVTNGKPEDKLGIRGSNTCEVHFENTKIPVENILGEVGDGFKVAMNILNSGRFSMGSVVAGLLKRLIEMTAEYACTRKQFNKRLSEFGLIQEKFALMAQKAYVMESMTYLTAGMLDQPGFPDCSIEAAMVKVFSSEAAWQCVSEALQIMGGMGFMRDYPYERILRDTRILLIFEGTNEILRMYIALTGLQHAGRILTTRIHELKQAKVSTVMDTVGRRLRDSLGRTVDLGLTGNHGVVHPSLADSANKFEENTYCFGRTVETLLLRFGKTIMEEQLVLKRVANILINLYGMTAVLSRASRSIRIGLRNHDHEVLLANTFCVEAYLQNLFSLSQLDKYAPENLDEQIKKVSQQILEKRAYICAHPLDRTC
notes: human ACAD9, residues 38-621, residues 401-407 LGGLGYT replaced by the corresponding VLCAD residues 437-443 MGGMGFM; also called ACAD9 mutated to mimic VLCAD; source: E. coli C43 (DE3), purified (HisTrap, dialysed in SEC buffer)
With B9 the “stoichiometry N” value [2] was 2.

B10: ACAD9_(A184S/SR194TS) (enzyme, human, UniProt Q9H845 38-621, looked up)
chain: AFAKELFLGKIKKKEVFPFPEVSQDELNEINQFLGPVEKFFTEEVDSRKIDQEGKIPDETLEKLKSLGLFGLQVPEEYGGLGFSNTMYSRLGEIISMDGSITVTLAAHQAIGLKGIILAGTEEQKAKYLPKLASGEHIAAFCLTEPSSGSDAASIRTSATLSEDKKHYILNGSKVWITNGGLANIFTVFAKTEVVDSDGSVKDKITAFIVERDFGGVTNGKPEDKLGIRGSNTCEVHFENTKIPVENILGEVGDGFKVAMNILNSGRFSMGSVVAGLLKRLIEMTAEYACTRKQFNKRLSEFGLIQEKFALMAQKAYVMESMTYLTAGMLDQPGFPDCSIEAAMVKVFSSEAAWQCVSEALQILGGLGYTRDYPYERILRDTRILLIFEGTNEILRMYIALTGLQHAGRILTTRIHELKQAKVSTVMDTVGRRLRDSLGRTVDLGLTGNHGVVHPSLADSANKFEENTYCFGRTVETLLLRFGKTIMEEQLVLKRVANILINLYGMTAVLSRASRSIRIGLRNHDHEVLLANTFCVEAYLQNLFSLSQLDKYAPENLDEQIKKVSQQILEKRAYICAHPLDRTC
notes: human ACAD9, residues 38-621, A184S and SR194TS combined (mimics the VLCAD gatekeeper loop); source: E. coli C43 (DE3), purified (HisTrap, dialysed in SEC buffer)
With B10 the “stoichiometry N” value [2] was 2.
